Patent US20250011379

Assays:
[1] = target: human C4b (UniProt P0C0L5)
[2] = target: soluble human C3b (UniProt P01024)
soluble human C3b, sequence (P01024 whole entry, looked up, tested part not stated): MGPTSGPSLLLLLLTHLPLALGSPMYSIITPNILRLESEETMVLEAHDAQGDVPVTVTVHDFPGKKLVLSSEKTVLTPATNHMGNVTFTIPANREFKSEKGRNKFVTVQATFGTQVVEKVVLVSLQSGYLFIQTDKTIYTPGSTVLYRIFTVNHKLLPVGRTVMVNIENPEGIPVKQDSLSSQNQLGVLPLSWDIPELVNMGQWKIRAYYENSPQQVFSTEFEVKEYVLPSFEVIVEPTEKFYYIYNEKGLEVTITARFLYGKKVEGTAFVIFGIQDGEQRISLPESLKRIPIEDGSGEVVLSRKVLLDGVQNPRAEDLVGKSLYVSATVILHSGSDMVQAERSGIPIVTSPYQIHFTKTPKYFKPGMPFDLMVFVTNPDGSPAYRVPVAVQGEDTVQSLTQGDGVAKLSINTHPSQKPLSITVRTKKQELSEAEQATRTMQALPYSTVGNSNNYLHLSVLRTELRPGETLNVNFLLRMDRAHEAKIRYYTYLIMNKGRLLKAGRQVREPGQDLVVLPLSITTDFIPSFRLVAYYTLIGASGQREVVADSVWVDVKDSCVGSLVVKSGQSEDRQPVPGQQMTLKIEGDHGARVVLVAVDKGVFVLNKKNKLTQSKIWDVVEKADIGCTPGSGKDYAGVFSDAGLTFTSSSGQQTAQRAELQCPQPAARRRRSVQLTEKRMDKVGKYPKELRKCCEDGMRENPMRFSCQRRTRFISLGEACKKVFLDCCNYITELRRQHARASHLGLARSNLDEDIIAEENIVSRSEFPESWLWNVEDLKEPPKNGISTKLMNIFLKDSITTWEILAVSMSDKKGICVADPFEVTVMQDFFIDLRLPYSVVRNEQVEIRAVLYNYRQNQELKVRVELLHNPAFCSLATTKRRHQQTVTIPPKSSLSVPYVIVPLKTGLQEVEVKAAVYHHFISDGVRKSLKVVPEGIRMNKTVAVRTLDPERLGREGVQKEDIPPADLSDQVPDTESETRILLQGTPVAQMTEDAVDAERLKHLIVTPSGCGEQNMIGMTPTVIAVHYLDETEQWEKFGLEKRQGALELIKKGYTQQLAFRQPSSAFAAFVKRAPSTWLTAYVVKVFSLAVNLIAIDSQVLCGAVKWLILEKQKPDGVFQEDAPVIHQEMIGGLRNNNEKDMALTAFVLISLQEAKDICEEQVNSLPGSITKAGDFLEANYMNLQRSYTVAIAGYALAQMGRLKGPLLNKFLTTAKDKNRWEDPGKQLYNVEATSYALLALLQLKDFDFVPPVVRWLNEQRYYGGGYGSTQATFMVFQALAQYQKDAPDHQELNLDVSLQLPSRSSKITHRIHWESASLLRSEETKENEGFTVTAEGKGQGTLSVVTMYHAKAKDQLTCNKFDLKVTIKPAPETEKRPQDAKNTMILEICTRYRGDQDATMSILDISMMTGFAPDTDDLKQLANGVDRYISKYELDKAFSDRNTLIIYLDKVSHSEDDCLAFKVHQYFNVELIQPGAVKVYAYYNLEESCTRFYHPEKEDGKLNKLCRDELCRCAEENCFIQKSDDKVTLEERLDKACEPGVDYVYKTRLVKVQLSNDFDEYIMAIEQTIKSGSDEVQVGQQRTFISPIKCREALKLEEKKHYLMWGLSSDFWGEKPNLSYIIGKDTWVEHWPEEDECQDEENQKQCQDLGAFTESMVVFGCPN

human C4b, sequence (P0C0L5 whole entry, looked up): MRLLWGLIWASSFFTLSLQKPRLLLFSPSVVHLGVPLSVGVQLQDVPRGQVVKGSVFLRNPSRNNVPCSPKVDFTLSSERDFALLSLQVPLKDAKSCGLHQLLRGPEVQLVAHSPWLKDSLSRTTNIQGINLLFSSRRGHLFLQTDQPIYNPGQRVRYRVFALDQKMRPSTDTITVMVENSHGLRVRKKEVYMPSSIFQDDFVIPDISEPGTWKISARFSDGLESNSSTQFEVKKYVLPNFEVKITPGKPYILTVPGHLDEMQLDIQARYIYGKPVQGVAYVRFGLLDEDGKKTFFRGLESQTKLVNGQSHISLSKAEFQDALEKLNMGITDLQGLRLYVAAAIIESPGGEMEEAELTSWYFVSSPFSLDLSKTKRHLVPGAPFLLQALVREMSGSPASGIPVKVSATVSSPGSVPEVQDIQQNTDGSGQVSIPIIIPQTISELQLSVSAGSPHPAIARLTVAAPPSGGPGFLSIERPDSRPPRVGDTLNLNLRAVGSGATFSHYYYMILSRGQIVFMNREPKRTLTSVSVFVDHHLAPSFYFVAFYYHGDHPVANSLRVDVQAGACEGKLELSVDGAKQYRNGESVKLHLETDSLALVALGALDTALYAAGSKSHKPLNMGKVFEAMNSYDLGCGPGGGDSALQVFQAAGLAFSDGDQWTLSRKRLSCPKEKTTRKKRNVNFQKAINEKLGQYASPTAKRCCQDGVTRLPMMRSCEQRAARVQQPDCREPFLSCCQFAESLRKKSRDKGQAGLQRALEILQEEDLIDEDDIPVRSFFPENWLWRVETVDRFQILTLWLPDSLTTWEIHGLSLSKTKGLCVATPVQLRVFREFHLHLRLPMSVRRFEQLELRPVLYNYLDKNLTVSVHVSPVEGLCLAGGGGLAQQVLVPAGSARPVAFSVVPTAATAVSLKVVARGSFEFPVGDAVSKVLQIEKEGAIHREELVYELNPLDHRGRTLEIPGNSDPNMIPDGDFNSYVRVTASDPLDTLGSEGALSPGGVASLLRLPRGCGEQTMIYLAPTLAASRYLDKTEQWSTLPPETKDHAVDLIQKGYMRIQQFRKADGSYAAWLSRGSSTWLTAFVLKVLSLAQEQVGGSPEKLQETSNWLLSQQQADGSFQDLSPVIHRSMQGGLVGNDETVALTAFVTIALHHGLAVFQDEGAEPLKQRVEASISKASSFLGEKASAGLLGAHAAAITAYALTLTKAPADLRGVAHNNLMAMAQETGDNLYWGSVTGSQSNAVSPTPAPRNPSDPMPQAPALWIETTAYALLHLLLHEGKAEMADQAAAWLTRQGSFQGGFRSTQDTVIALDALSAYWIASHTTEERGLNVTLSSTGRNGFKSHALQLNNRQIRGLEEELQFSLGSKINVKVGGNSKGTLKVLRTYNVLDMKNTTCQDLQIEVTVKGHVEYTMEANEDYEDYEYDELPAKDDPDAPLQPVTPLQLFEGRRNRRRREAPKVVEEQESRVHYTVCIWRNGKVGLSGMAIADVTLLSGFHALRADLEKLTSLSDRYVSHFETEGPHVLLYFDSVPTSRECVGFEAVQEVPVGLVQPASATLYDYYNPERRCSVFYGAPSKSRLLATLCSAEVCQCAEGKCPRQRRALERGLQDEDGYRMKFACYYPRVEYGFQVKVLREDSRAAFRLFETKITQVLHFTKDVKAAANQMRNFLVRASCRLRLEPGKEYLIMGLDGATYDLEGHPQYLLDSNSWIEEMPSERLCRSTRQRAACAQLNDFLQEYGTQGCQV
Const. No. 10: HSA-GGSSGG-hCFI; Δ(Y496), sequence (chain): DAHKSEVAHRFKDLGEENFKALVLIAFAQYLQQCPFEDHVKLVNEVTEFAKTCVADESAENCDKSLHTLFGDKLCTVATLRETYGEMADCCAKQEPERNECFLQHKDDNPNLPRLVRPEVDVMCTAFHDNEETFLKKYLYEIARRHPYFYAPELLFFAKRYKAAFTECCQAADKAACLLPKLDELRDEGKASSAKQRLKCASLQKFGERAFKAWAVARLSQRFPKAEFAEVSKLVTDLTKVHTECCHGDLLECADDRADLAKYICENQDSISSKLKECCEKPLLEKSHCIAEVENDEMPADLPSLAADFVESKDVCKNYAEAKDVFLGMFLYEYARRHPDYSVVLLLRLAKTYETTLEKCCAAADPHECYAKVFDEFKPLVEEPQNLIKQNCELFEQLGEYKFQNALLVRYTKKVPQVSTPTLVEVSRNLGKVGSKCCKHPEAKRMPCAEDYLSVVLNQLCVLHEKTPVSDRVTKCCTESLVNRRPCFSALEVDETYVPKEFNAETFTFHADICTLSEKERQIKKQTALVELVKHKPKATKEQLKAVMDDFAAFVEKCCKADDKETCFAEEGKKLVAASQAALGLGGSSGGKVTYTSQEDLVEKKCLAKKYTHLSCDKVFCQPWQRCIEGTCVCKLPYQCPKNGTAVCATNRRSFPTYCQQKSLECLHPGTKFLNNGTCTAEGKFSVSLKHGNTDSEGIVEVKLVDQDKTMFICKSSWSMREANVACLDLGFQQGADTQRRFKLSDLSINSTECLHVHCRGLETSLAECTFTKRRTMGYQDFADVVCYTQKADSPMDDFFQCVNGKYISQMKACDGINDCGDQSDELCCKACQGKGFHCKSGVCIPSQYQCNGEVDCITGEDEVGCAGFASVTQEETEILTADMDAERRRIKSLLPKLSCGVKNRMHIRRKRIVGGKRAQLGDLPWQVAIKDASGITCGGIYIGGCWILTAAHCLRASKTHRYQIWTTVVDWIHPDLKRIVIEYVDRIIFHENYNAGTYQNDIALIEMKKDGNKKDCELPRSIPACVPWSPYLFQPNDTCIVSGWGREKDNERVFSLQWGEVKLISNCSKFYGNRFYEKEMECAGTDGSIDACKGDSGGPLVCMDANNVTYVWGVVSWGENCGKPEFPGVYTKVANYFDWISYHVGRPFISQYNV

Substance	C4c ref fold [1] [fold]	iC3b ref fold [2] [fold]
Const. No. 25: HSA-GGSSGG-hCFI; R62H	0.74	0.29
Const. No. 3: HSA-GGSSGG-hCFI; L307F	3.48	1.01
Const. No. 19: HSA-GGSSGG-hCFI; S499A; I500K	-0.05	0.02
Const. No. 89: HSA-GGSSGG-hCFI; T377G; E457G; N531G-GGSSGG-hCR1; CCP15; CCP16; CCP17; hFH; CCP4-GGGGGGGGGGGG-hFH; CCP19; CCP20	3.21	0.05
Const. No. 20: HSA-GGSSGG-hCFI; T495F; Y496L; S499G; I500K	0.05	0
Const. No. 13: HSA-GGSSGG-hCFI; S499G	0.72	0.34
Const. No. 64: HSA-GGSSGG-hCFI-GGSSGG-hCR1; CCP8; CCP9; CCP10	4.11	0.06
Const. No. 21: HSA-GGSSGG-hCFI; K423R	1.44	0.55
Const. No. 40: HSA-GGSSGG-hCFI; T59E	2.17	0.68
Const. No. 35: HSA-GGSSGG-hCFI; R371E	2.02	0.04
Const. No. 56: HSA-GGSSGG-hCFI; D395A; D425A	0.65	1.77
Const. No. 58: HSA-GGSSGG-hCFI; D395A; E416A; D425A	0.06	0.77
Const. No. 45: HSA-GGSSGG-hCFI; R484A	1.3	0.7
Const. No. 36: HSA-GGSSGG-hCFI; A342R	2.08	1.73
Const. No. 34: HSA-GGSSGG-hCFI; H554K	2.62	2.11
Const. No. 55: HSA-GGSSGG-hCFI; D395R	1.38	1.85
Const. No. 92: HSA-GGSSGG-hCFI; N422A	1.52	0.72
Const. No. 43: HSA-GGSSGG-hCFI; Δ(275-CAGFASVAQE-284)(SEQ ID NO: 31) > CEEDRQQNIPKGLARSAQGEAEIETE (SEQ ID NO: 32)	1.54	0.89
Const. No. 37: HSA-GGSSGG-hCFI; K51R; N52A; A55P; T59M; R61G; F64Y	3.59	1.12
Const. No. 76: HSA-GGSSGG-hCFI; H383K; D385N; K387S; R388Q; E392Q; Y393T; D395K; K419M; D420H; G421T; N422G; D425E	4.46	2.11
Const. No. 53: HSA-GGSSGG-hCFI; D395G	0.8	1.52
Const. No. 28: HSA-GGSSGG-hCFI; E401A	0.86	1.87
Const. No. 51: HSA-GGSSGG-hCFI; E416R	1.17	1.87
Const. No. 67: HSA-GGSSGG-hCFI-GGSSGG-hCR1; CCP1; CCP2; CCP3; CCP4	3.2	-0.01
Const. No. 46: HSA-GGSSGG-hCFI; R484K	0.76	1.21
Const. No. 48: HSA-GGSSGG-hCFI; Δ(V565) > VG	0.67	0
Const. No. 68: HSA-GGSSGG-hCFI-GGSSGG-hCR1; CCP1; CCP2; CCP3-GGSSGG-hCR1; CCP15; CCP16; CCP17	3.75	0.06

Substance	C4c ref fold [1] [fold]	iC3b ref fold [2] [fold]
Const. No. 50: HSA-GGSSGG-hCFI; E416K	1.23	1.89
Const. No. 22: HSA-GGSSGG-hCFI; R62A	1.07	0.23
Const. No. 70: HSA-GGSSGGSSGG-Rat CFI	4.12	0.94
Const. No. 16: HSA-GGSSGG-hCFI; S499V	1.24	0.18
Const. No. 2: HSA-GGSSGG-hCFI; F559H	0.58	1.73
Const. No. 31: HSA-GGSSGG-hCFI; N402K	1.14	1.53
Const. No. 1: HSA-GGSSGG-hCFI; F559W	1.08	1.39
Const. No. 59: HSA-GGSSGG-hCFI; N402D	1.66	0.74
Const. No. 52: HSA-GGSSGG-hCFI; D395A	0.78	1.55
Const. No. 72: HSA-GGSSGGSSGG-Cyno CFI	0.34	3.17
Const. No. 5: HSA-GGSSGG-hCFI; L307W	3.89	0.79
Const. No. 80: HSA-GGSSGG-hCFI; Δ(1-KVTYTS-6)(SEQ ID NO: 35) > RSPSASDLP (SEQ ID NO: 36)	3.07	0.91
Const. No. 7: HSA-GGSSGG-hCFI; P433A	0.81	0.8
Const. No. 14: HSA-GGSSGG-hCFI; S499A	0.45	1.36
Const. No. 54: HSA-GGSSGG-hCFI; D395K	1.61	2.06
Const. No. 73: HSA-GGSSGGSSGG-Chimp CFI	-0.03	0.08
Const. No. 27: HSA-GGSSGG-hCFI; E401R	2.93	2.12
Const. No. 24: HSA-GGSSGG-hCFI; R62L	0.59	0.19
Const. No. 91: HSA-GGSSGG-hCFI; T377A; E457G; N531G	4.59	1.7
Const. No. 23: HSA-GGSSGG-hCFI; R62E	0.1	0.04
Const. No. 93: HSA-GGSSGG-hCFI; T377A	2.36	1.09
Const. No. 15: HSA-GGSSGG-hCFI; S499K	1.98	0.67
Const. No. 47: HSA-GGSSGG-hCFI; R484E	0.93	0.35
Const. No. 29: HSA-GGSSGG-hCFI; E401F	0.5	1.64
Const. No. 78: HSA-GGSSGG-hCFI; K51D; T59E; R61D	-0.24	0
Const. No. 42: HSA-GGSSGG-hCFI; L73D	2.33	0.08
Const. No. 74: HSA-GGSSGGSSGG-Bovine CFI	2.19	1.67

Substance	C4c ref fold [1] [fold]	iC3b ref fold [2] [fold]
Const. No. 26: HSA-GGSSGG-hCFI; E401K	1.92	2.37
Const. No. 32: HSA-GGSSGG-hCFI; N402R	0.98	1.47
Const. No. 77: HSA-GGSSGG-hCFI; H383K; R388Q; E392Q; Y393T; K419M	3.81	1.21
Const. No. 81: HSA-GGSSGG-hCFI; M186E; G187L; Y188S; Q189N; D190G; F191L; D193G	3.31	0.95
Const. No. 57: HSA-GGSSGG-hCFI; D395A; E416A	0.06	0.76
Const. No. 33: HSA-GGSSGG-hCFI; H554F	0.55	1
Const. No. 95: HSA linked with CFI (CFI-HSA), wild type	1	1
Const. No. 38: HSA-GGSSGG-hCFI; N52A	2.93	0.72
Const. No. 79: HSA-GGSSGG-hCFI; Q69H; L73F; G79E; T80I; L83S; N84H	3.36	1.63
Const. No. 49: HSA-GGSSGG-hCFI; Δ(V565) > VY	1.47	0.15
Const. No. 4: HSA-GGSSGG-hCFI; L307H	3.55	0.89
Const. No. 39: HSA-GGSSGG-hCFI; A55P	2.83	1.1
Const. No. 6: HSA-GGSSGG-hCFI; L307Y	2.98	0.63
Const. No. 11: HSA-GGSSGG-hCFI; Δ(D497)	-0.02	-0.01
Const. No. 10: HSA-GGSSGG-hCFI; Δ(Y496)	0.02	0.03
Const. No. 71: HSA-GGSSGGSSGG-Gorilla CFI	0.09	0.07
Const. No. 30: HSA-GGSSGG-hCFI; N402G	0.73	1.44
Const. No. 9: HSA-GGSSGG-hCFI; P433F	0.05	0.07
Const. No. 17: HSA-GGSSGG-hCFI; Y496L	1.54	0.44
Const. No. 41: HSA-GGSSGG-hCFI; L73F	2.36	0.9
Const. No. 12: HSA-GGSSGG-hCFI; Δ(Y496; D497)	0.9	0.18
Const. No. 60: HSA-GGSSGG-hCFI; K368D	1.39	0.03
Const. No. 75: HSA-GGSSGGSSGG-Alligator CFI	0.12	-0.03
Const. No. 8: HSA-GGSSGG-hCFI; P433G	0.39	0.14
Const. No. 18: HSA-GGSSGG-hCFI; S499G; I500K	0.08	0.16
Const. No. 44: HSA-GGSSGG-hCFI; Δ(275-CAGFASVAQE-284)(SEQ ID NO: 31) > CEEDRQQNIPKGLARSAQGEAEIETE (SEQ ID NO: 32) + GGSSGG (SEQ ID NO: 6) + CR1(ccp15-17)	3.47	0.03
